Experiment [1] concerns the target T1, human fibrin (immobilised, fibrin-Sepharose) (human, UniProt P02671 36-629; P02675 45-491; P02679 27-437).
T1 construct: Fibrin coupled to Sepharose beads; Its preparation and chain limits are not described; also called human fibrin-Sepharose
T1 sequence 1: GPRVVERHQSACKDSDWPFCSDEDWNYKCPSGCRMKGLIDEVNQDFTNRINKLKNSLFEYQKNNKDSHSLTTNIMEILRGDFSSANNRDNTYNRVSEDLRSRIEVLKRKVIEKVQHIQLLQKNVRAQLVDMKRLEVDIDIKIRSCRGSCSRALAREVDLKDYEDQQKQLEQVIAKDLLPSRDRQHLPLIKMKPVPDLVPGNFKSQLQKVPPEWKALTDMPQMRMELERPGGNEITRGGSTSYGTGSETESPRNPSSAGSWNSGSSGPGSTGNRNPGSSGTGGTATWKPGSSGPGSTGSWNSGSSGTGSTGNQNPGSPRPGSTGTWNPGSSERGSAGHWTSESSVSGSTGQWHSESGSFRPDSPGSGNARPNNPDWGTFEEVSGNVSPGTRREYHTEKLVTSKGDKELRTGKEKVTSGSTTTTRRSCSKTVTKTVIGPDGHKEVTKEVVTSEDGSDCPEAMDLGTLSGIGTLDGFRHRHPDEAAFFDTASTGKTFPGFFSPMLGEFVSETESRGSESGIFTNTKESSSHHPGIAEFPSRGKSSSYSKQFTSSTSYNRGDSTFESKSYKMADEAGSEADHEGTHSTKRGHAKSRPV
T1 sequence 2: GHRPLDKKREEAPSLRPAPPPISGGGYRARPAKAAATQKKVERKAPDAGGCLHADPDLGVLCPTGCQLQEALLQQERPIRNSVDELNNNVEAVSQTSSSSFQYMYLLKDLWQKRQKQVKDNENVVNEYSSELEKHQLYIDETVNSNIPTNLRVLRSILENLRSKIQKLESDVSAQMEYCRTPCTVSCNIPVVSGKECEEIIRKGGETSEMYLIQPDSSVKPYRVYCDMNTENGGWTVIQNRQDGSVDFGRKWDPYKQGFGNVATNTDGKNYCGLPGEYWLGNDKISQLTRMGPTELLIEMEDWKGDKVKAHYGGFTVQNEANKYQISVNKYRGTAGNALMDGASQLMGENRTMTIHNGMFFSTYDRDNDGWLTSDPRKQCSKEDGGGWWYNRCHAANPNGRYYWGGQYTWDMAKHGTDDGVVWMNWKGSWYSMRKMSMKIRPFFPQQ
T1 sequence 3: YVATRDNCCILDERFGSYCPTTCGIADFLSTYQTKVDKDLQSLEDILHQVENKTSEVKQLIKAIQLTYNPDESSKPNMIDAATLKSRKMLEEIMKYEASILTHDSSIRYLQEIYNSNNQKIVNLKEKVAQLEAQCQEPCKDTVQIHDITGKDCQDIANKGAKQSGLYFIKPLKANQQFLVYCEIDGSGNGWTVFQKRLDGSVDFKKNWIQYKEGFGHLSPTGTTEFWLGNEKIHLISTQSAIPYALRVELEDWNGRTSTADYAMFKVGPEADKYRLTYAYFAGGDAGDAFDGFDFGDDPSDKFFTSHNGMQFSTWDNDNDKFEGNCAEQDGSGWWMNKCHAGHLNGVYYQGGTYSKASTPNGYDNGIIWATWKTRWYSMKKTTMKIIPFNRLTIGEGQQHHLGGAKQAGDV
As to the kind of experiment: fibrin-Sepharose affinity chromatography; washes with binding buffer and 2 M urea, elution with 6 M urea.

Experiment [2] has as its target T1, human fibrin (immobilised, …). In words: refolding with fibrin-Sepharose beads; washes with binding buffer and 2 M urea, elution with 6 M urea.

Experimental findings from US7163817 (COUNCIL OF SCIENTIFIC AND INDUSTRIAL RESEARCH A NEW DEHLI …, dated 2007) are described below.

B1: SK control (streptokinase, fibrin-Sepharose experiment) (other)
chain: IAGPEWLLDRPSVNNSQLVVSVAGTVEGTNQDISLKFFEIDLTSRPAHGGKTEQGLSPKSKPFATDSGAMSHKLEKADLLKAIQEQLIANVHSNDDYFEVIDFASDATITDRNGKVYFADKDGSVTLPTQPVQEFLLSGHVRVRPYKEKPIQNQAKSVDVEYTVQFTPLNPDDDFRPGLKDTKLLKTLAIGDTITSQELLAQAQSILNKNHPGYTIYERDSSIVTHDNDIFRTILPMDQEFTYRVKNREQAYRINKKSGLNEEINNTDLISEKYYVLKKGEKPYDPFDRSHLKLFTIKYVDVDTNELLKSEQLLTASERNLDFRDLYDPRDKAKLLYNNLDAFGIMDYTLTGKVEDNHDDTNRIITVYMGKRPEGENASYHLAYDKDRYTEEEREVYSYLRYTGTPIPDNPNDK
As to B1, the binding result in experiment [1] was “no binding”.

B2: SK-FBD(1,2) chimeric protein (other)
chain: MIAGPEWLLDRPSVNNSQLVVSVAGTVEGTNQDISLKFFEIDLTSRPAHGGKTEQGLSPKSKPFATDSGAMSHKLEKADLLKAIQEQLIANVHSNDDYFEVIDFASDATITDRNGKVYFADKDGSVTLPTQPVQEFLLSGHVRVRPYKEKPIQNQAKSVDVEYTVQFTPLNPDDDFRPGLKDTKLLKTLAIGDTITSQELLAQAQSILNKNHPGYTIYERDSSIVTHDNDIFRTILPMDQEFTYRVKNREQAYRINKKSGLNEEINNTDLISEKYYVLKKGEKPYDPFDRSHLKLFTIKYVDVDTNELLKSEQLLTASERNLDFRDLYDPRDKAKLLYNNLDAFGIMDYTLTGKVEDNHDDTNRIITVYMGKRPEGENASYHLAGGGQAQQMVQPQSPVAVSQSKPGCYDNGKHYQINQQWERTYLGNVLVCTCYGGSRGFNCESKPEAEETCFDKYTGNTYRVGDTYERPKDSMIWDCTCIGAGRGRISC
notes: Start residue 1 is inferred from primer MY-10, which hybridises at the natural TG site QAQQMV
Consider B2, for which the “fibrin-bound protein eluted with 6 M urea” value in experiment [2] is approximately 4 mg.
